Data on 32 molecules can be found in PMC6555819, “Comprehensive study of nuclear receptor DNA binding provides a revised framework for understanding receptor specificity”.

Positions count from the first letter of the chain named.

The chains are these.
B1: NRC3_wobSeed50_DR2_T12G_o1 (dsDNA)
DNA 1: GCCCTAGTTGGGCAGGAGGTCACACACCGGATATGAGCGATTGACAGCGTAGAATGAAGG
DNA 2: CCTTCATTCTACGCTGTCAATCGCTCATATCCGGTGTGTGACCTCCTGCCCAACTAGGGC
B2: NRC3_wobSeed65_DR2_T8C_o1 (dsDNA)
DNA 1: GCATATGCAGGTTATCGGGTCATTCAGTTTGCGCATGCGATTGACAGCGTAGAATGAAGG
DNA 2: CCTTCATTCTACGCTGTCAATCGCATGCGCAAACTGAATGACCCGATAACCTGCATATGC
B3: NRC3_wobSeed65_DR2_A9G_o1 (dsDNA)
DNA 1: B2 DNA 1 with C8T, A9G
DNA 2: B2 DNA 2 with T52C, G53A
B4: NRC3_wobSeed88_DR3_T15A_o1 (dsDNA)
DNA 1: GCTAGCCTAGGTCAAGCGGGCCAGTATAGTGTCGGCGCGATTGACAGCGTAGAATGAAGG
DNA 2: CCTTCATTCTACGCTGTCAATCGCGCCGACACTATACTGGCCCGCTTGACCTAGGCTAGC
B5: NRC3_wobSeed134_DR5_o1 (dsDNA)
DNA 1: GCGCTGCTAGGTCAACTGATGGTCAGCTAAAGCTCGGCGATTGACAGCGTAGAATGAAGG
DNA 2: CCTTCATTCTACGCTGTCAATCGCCGAGCTTTAGCTGACCATCAGTTGACCTAGCAGCGC
B6: NRC3_wobSeed134_DR5_C13T_o1 (dsDNA)
DNA 1: B5 DNA 1 with C13T
DNA 2: B5 DNA 2 with G48A
B7: NRC3_wobSeed64_DR2_T16A_o1 (dsDNA)
DNA 1: GCTAGCCTAGGTCATAGGGCCAGTATAGTACGCATCGCGATTGACAGCGTAGAATGAAGG
DNA 2: CCTTCATTCTACGCTGTCAATCGCGATGCGTACTATACTGGCCCTATGACCTAGGCTAGC
B8: NRC3_wobSeed136_DR5_G21C_o1 (dsDNA)
DNA 1: GCTAGCCTAGGTCATTCAGGCGCCAGTATAGAAAGCGCGATTGACAGCGTAGAATGAAGG
DNA 2: CCTTCATTCTACGCTGTCAATCGCGCTTTCTATACTGGCGCCTGAATGACCTAGGCTAGC
B9: NRC3_wobSeed100_DR4_C15T_o1 (dsDNA)
DNA 1: GCCCTACTGGGCCATGAAAGGTCATTGATTCAGTGAGCGATTGACAGCGTAGAATGAAGG
DNA 2: CCTTCATTCTACGCTGTCAATCGCTCACTGAATCAATGACCTTTCATGGCCCAGTAGGGC
B10: NRC3_wobSeed36_DR1_A26G_o1 (dsDNA)
DNA 1: GCCCGACTGGGGCAAAGGTTACCATGCTCAGTACGAGCGATTGACAGCGTAGAATGAAGG
DNA 2: CCTTCATTCTACGCTGTCAATCGCTCGTACTGAGCATGGTAACCTTTGCCCCAGTCGGGC
B11: NRC3_wobSeed46_DR1_T22G_o1 (dsDNA)
DNA 1: GCTTACCAAGGTGAAAGGTCGGTGATGCACGCCTTGGCGATTGACAGCGTAGAATGAAGG
DNA 2: CCTTCATTCTACGCTGTCAATCGCCAAGGCGTGCATCACCGACCTTTCACCTTGGTAAGC
B12: NRC3_wobSeed98_DR4_o1 (dsDNA)
DNA 1: GCACTAGTTGGTCAGCTGAGGTCACACACAATTCGGGCGATTGACAGCGTAGAATGAAGG
DNA 2: CCTTCATTCTACGCTGTCAATCGCCCGAATTGTGTGTGACCTCAGCTGACCAACTAGTGC
B13: NRC3_wobSeed98_DR4_G15C_o1 (dsDNA)
DNA 1: B12 DNA 1 with G15C
DNA 2: B12 DNA 2 with C46G
B14: NRC3_wobSeed74_DR3_A14G_o1 (dsDNA)
DNA 1: GCTCTAGTTGGTCGCGGAGGTCACACACGACGGGTAGCGATTGACAGCGTAGAATGAAGG
DNA 2: CCTTCATTCTACGCTGTCAATCGCTACCCGTCGTGTGTGACCTCCGCGACCAACTAGAGC
B15: NRC3_wobSeed32_DR1_C4A_o1 (dsDNA)
DNA 1: GCTATTGTAGATCAAAGGTTAAGAAAGCCGAAGCCTGCGATTGACAGCGTAGAATGAAGG
DNA 2: CCTTCATTCTACGCTGTCAATCGCAGGCTTCGGCTTTCTTAACCTTTGATCTACAATAGC
B16: NRC3_wobSeed82_DR3_A28G_o1 (dsDNA)
DNA 1: GCATCGAAAGGTCGACGAGGTGAGTATGCACCGTTTGCGATTGACAGCGTAGAATGAAGG
DNA 2: CCTTCATTCTACGCTGTCAATCGCAAACGGTGCATACTCACCTCGTCGACCTTTCGATGC
B17: NRC3_wobSeed124_DR5_T16A_o1 (dsDNA)
DNA 1: GCCCTACTGGGCCATACAGAGGTCATTGATCATATGGCGATTGACAGCGTAGAATGAAGG
DNA 2: CCTTCATTCTACGCTGTCAATCGCCATATGATCAATGACCTCTGTATGGCCCAGTAGGGC
B18: NRC3_wobSeed124_DR5_G10T_o1 (dsDNA)
DNA 1: B17 DNA 1 with G10T, A16T
DNA 2: B17 DNA 2 with T45A, C51A
B19: NRC3_wobSeed124_DR5_A6T_o1 (dsDNA)
DNA 1: B17 DNA 1 with A6T, A16T
DNA 2: B17 DNA 2 with T45A, T55A
B20: NRC3_wobSeed124_DR5_T5C_o1 (dsDNA)
DNA 1: B17 DNA 1 with T5C, A16T
DNA 2: B17 DNA 2 with T45A, A56G
B21: NRC3_wobSeed93_DR3_A23T_o1 (dsDNA)
DNA 1: GCAGTCAAAGTTCATCTAGGTATCGTAAGATATGCTGCGATTGACAGCGTAGAATGAAGG
DNA 2: CCTTCATTCTACGCTGTCAATCGCAGCATATCTTACGATACCTAGATGAACTTTGACTGC
B22: NRC3_wobSeed73_DR3_T21G_o1 (dsDNA)
DNA 1: GCCAAACTAGGTCACAGAGGGCAAAGTCCGTGCGTAGCGATTGACAGCGTAGAATGAAGG
DNA 2: CCTTCATTCTACGCTGTCAATCGCTACGCACGGACTTTGCCCTCTGTGACCTAGTTTGGC
B23: NRC3_wobSeed73_DR3_T21A_o1 (dsDNA)
DNA 1: B22 DNA 1 with G21A
DNA 2: B22 DNA 2 with C40T
B24: NRC3_wobSeed4_DR0_T8G_o1 (dsDNA)
DNA 1: GCCCTACGGGGCCAAGGTCATTGATCAGTCAAAGCAGCGATTGACAGCGTAGAATGAAGG
DNA 2: CCTTCATTCTACGCTGTCAATCGCTGCTTTGACTGATCAATGACCTTGGCCCCGTAGGGC
B25: NRC3_wobSeed30_DR1_C4G_o1 (dsDNA)
DNA 1: GCAGTAGCAGGCCAAGGGTCACTCAAGATTAGTCCGGCGATTGACAGCGTAGAATGAAGG
DNA 2: CCTTCATTCTACGCTGTCAATCGCCGGACTAATCTTGAGTGACCCTTGGCCTGCTACTGC
B26: NRC3_wobSeed101_DR4_G20T_o1 (dsDNA)
DNA 1: GCCCTTACGGGTCACTCCATGTTATAGCATCGGAGTGCGATTGACAGCGTAGAATGAAGG
DNA 2: CCTTCATTCTACGCTGTCAATCGCACTCCGATGCTATAACATGGAGTGACCCGTAAGGGC
B27: NRC3_wobSeed21_DR0_T18C_o1 (dsDNA)
DNA 1: GCCGTCAAAGTTCAAGGCAACGTAACAGAAAGCAGCGCGATTGACAGCGTAGAATGAAGG
DNA 2: CCTTCATTCTACGCTGTCAATCGCGCTGCTTTCTGTTACGTTGCCTTGAACTTTGACGGC
B28: NRC3_wobSeed99_DR4_G10T_o1 (dsDNA)
DNA 1: GCTCTCGGATGACACGAAAGGTCAGAGCTCGACATCGCGATTGACAGCGTAGAATGAAGG
DNA 2: CCTTCATTCTACGCTGTCAATCGCGATGTCGAGCTCTGACCTTTCGTGTCATCCGAGAGC
B29: NRC3_wobSeed63_DR2_G19A_o1 (dsDNA)
DNA 1: GCCGAACTAGGTCACCAGAACAGTGAAGAGGTTGGAGCGATTGACAGCGTAGAATGAAGG
DNA 2: CCTTCATTCTACGCTGTCAATCGCTCCAACCTCTTCACTGTTCTGGTGACCTAGTTCGGC
B30: NRC3_wobSeed6_DR0_A6G_o1 (dsDNA)
DNA 1: GCCCTGGCAGGCCAGGGTCACTCAAGCATTTCGCTTGCGATTGACAGCGTAGAATGAAGG
DNA 2: CCTTCATTCTACGCTGTCAATCGCAAGCGAAATGCTTGAGTGACCCTGGCCTGCCAGGGC
B31: NRC3_wobSeed6_DR0_C13G_o1 (dsDNA)
DNA 1: B30 DNA 1 with G6A, C13G
DNA 2: B30 DNA 2 with G48C, C55T
B32: NRC3_wobSeed137_DR5_A16G_o1 (dsDNA)
DNA 1: GCATATGTAGGTTACGTCCGGGTCATTCAGGCTATGGCGATTGACAGCGTAGAATGAAGG
DNA 2: CCTTCATTCTACGCTGTCAATCGCCATAGCCTGAATGACCCGGACGTAACCTACATATGC

For the data set, the target named is RXRa (Homo sapiens, UniProt P19793). In words: no ligand; PBM; 180 nM; PBS pH 7.4, 2% milk, 0.02% Triton X-100, 1 mM DTT, BSA, 0.4 mg/ml salmon testes DNA. The note with it: tags: His cleaved; chain copies: 2; label: surface-attached array probe.
Chain of RXRa (P19793 whole entry): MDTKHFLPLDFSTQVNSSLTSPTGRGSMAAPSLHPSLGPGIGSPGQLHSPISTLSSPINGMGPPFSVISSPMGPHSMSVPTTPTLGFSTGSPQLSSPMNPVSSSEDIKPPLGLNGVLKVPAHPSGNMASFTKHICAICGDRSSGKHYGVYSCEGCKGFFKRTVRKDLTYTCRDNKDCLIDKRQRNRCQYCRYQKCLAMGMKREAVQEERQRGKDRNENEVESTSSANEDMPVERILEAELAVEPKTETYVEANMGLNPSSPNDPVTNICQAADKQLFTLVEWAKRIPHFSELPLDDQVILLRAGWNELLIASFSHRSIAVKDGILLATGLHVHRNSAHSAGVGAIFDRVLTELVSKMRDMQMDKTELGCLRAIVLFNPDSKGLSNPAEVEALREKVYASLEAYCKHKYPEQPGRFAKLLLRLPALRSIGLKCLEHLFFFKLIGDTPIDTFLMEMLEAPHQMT
On to B1, for which the binding signal was 3.92 PBM z-score against 500 random probes.
Turning to B2, the binding signal is 3.65 PBM z-score against 500 random probes.
Under B3 stands 3.44 PBM z-score against 500 random probes.
Under B4 stands 3.14 PBM z-score against 500 random probes.
As for B5, the binding signal is 3.07 PBM z-score against 500 random probes.
B6: the binding signal is 0.49 PBM z-score against 500 random probes.
Turning to B7, the binding signal was 3.11 PBM z-score against 500 random probes.
Under B8 stands 3 PBM z-score against 500 random probes; under B9, 4.52 PBM z-score against 500 random probes; under B10, 3.81 PBM z-score against 500 random probes.
As for B11, the binding signal was 3.86 PBM z-score against 500 random probes.
Under B12 stands 4.42 PBM z-score against 500 random probes.
Next, B13: 4.28 PBM z-score against 500 random probes; B14: 4.16 PBM z-score against 500 random probes.
As to B15, the binding signal was 3.28 PBM z-score against 500 random probes.
B16: the binding signal is 4.34 PBM z-score against 500 random probes.
Turning to B17, the binding signal was 4.2 PBM z-score against 500 random probes.
Next, B18: 3.59 PBM z-score against 500 random probes.
Turning to B19, the binding signal was 3.71 PBM z-score against 500 random probes.
For B20, the binding signal is 3.75 PBM z-score against 500 random probes.
Under B21 stands 4.47 PBM z-score against 500 random probes.
Under B22 stands 4.01 PBM z-score against 500 random probes; under B23, 3.55 PBM z-score against 500 random probes.
For the molecule B24, the binding signal was 3.5 PBM z-score against 500 random probes.
Next, B25: 4.38 PBM z-score against 500 random probes; B26: 4.24 PBM z-score against 500 random probes; B27: 3.96 PBM z-score against 500 random probes.
As to B28, the binding signal is 4.05 PBM z-score against 500 random probes.
Under B29 stands 3.24 PBM z-score against 500 random probes; under B30, 3.39 PBM z-score against 500 random probes; under B31, 3.19 PBM z-score against 500 random probes.
Next, B32: 3.33 PBM z-score against 500 random probes.
